± gives the standard deviation of the averaged measurements.
test system: Saccharomyces cerevisiae; experiment: protein stability index of tFT-peptide fusion (C-terminal peptide) (PSI (0-1 scale)); higher = more stable (slower turnover); conditions: genetic background: wild type; temperature: 30 C
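Further: PSI is a weighted mean of sequencing reads over stability bins, variants kept only with over 10 reads, mCherry proximal and sfGFP distal, peptide attached via GGGS linker.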

| Sequence | protein stability index |
| --- | --- |
| IEIGTEEGKCTT | 0.707 ± 0.053 |
| CESASGAAWLGG | 0.723 ± 0.029 |
| LFCARNGILLSV | 0.516 ± 0.0084 |
| ARPAPPLPAIPL | 0.663 ± 0.043 |
| GGGGSFLVGLGL | 0.647 ± 0.056 |
| RAFEGGRHCRAG | 0.67 ± 0.049 |
| SVKESKIQQNRE | 0.705 ± 0.11 |
| VGSRLVYSAFNV | 0.69 ± 0.01 |
| TALGVCPRVMQN | 0.718 ± 0.039 |
| MREAQAFRCLYG | 0.636 ± 0.0019 |
| ILLFSLKHRSDH | 0.63 ± 0.018 |
| VVGGRWVVWSFK | 0.688 ± 0.018 |
| PGLSTGAVKLLY | 0.692 ± 0.023 |
| VCSVVGGGYSWG | 0.686 ± 0.12 |
| ALLSRFFPAFFF | 0.604 ± 0.021 |
| LSKASNTLVDSD | 0.755 ± 0.058 |
| LLKQDNSVLSEL | 0.63 ± 0.07 |
| SPPPAPPPPPQT | 0.66492 ± 0.00031 |
| PPILLPPPDASH | 0.702 ± 0.025 |
| SLVLFRSCSFFS | 0.669 ± 0.024 |
| LTHTVLVGSALN | 0.647 ± 0.024 |
| SAGPVYAGGVAS | 0.6895 ± 0.0068 |
| VRIARSYERGGK | 0.701 ± 0.059 |
| WEEKLEGTPTGG | 0.72 ± 0.072 |
| PPPPLPPPSHYP | 0.728 ± 0.033 |
| VWLFAESFCGCV | 0.597 ± 0.036 |

| Sequence | protein stability index |
| --- | --- |
| SPPASFPLPPPP | 0.6802 ± 0.0015 |
| SGAWSGGGESGH | 0.596 ± 0.058 |
| AGGAGWGLVLGC | 0.647 ± 0.082 |
| VVDGSILTIRCL | 0.6226 ± 0.0048 |
| CTYHLPFYNVLF | 0.849 ± 0.19 |
| AGLRMALGVGIP | 0.6975 ± 0.0065 |
| VVVGVGGCVYMG | 0.702 ± 0.06 |
| SSRAGVRRPHSR | 0.685 ± 0.053 |
| DKKKKTKINNKK | 0.698 ± 0.01 |
| RRVKRGGARKEA | 0.654 ± 0.019 |
| SVLVHSFRSVNV | 0.66 ± 0.002 |
| KSRRTTMINIRC | 0.668 ± 0.016 |
| GCFRGLYVVRGG | 0.647 ± 0.039 |
| ALLLSHFLFFYA | 0.524 ± 0.028 |
| SSRVWPRRRSTA | 0.634 ± 0.052 |
| ARGAPVSGRAGG | 0.6574 ± 0.005 |
| DHLPSPRPRPPP | 0.7295 ± 0.0012 |
| STVESPNSLPPL | 0.676 ± 0.037 |
| ILSWSGLSTGLE | 0.876 ± 0.065 |
| PLTRSRFLLSPL | 0.653 ± 0.034 |
| GDIILSFFNFSK | 0.666 ± 0.024 |
| PALPPPFPPFSP | 0.72 ± 0.084 |
| KSKTYIKKTRKQ | 0.744 ± 0.031 |
| FSVSSSLSSFRA | 0.717 ± 0.03 |
| DPRPPRPDFRPS | 0.691 ± 0.072 |
| SPHPPPSRLPPP | 0.709 ± 0.029 |

| Sequence | protein stability index |
| --- | --- |
| SKLAVWVGERGF | 0.759 ± 0.02 |
| GVGGFLGVVGVG | 0.5857 ± 0.0019 |
| PISPPSFRSPTP | 0.691 ± 0.029 |
| LPPSSSPCPLPS | 0.7304 ± 0.0053 |
| TSGNSTALKMGR | 0.741 ± 0.059 |
| RASPPPPPPPPP | 0.658 ± 0.045 |
| ETSERIEDKDGI | 0.698 ± 0.051 |
| RGWGGGRKVSVG | 0.652 ± 0.036 |
| PLSPRPLPPPPP | 0.713 ± 0.0018 |
| GRLGCAVCGSRG | 0.708 ± 0.041 |
| KKKKKKTNKKKE | 0.758 ± 0.065 |
| LWENVVLVEGGK | 0.704 ± 0.069 |
| NPSSKVIALWKI | 0.556 ± 0.046 |
| YRGRGSDQYAGT | 0.624 ± 0.058 |
| PLSYRPPSRFYF | 0.587 ± 0.061 |
| LFLLALFPPPAS | 0.738 ± 0.013 |
| MQLWECKQSLCD | 0.696 ± 0.017 |
| PWPGSWALFCFI | 0.719 ± 0.15 |
| IMKRNKKIKREI | 0.711 ± 0.024 |
| CIITHSQNKLNT | 0.724 ± 0.059 |
| WVCRVWGGWLRG | 0.686 ± 0.044 |
| CCLSVFSYESLA | 0.709 ± 0.016 |
| RVPPGSPYPPLL | 0.7319 ± 0.0028 |
| FCPSLFLNPHSC | 0.6739 ± 0.00084 |
| PPDSSPLGGEVG | 0.6775 ± 0.0058 |
| KKKIKIQPRTEN | 0.7302 ± 0.0065 |

| Sequence | protein stability index |
| --- | --- |
| GVGGGSRGVCLG | 0.638 ± 0.094 |
| VTDSRAIMARRV | 0.645 ± 0.083 |
| QTRDFRRASYAP | 0.646 ± 0.019 |
| PPRPRPPPSPYH | 0.667 ± 0.011 |
| PTRRVHRTPLFP | 0.778 ± 0.13 |
| EQFLRCEALGAW | 0.661 ± 0.02 |
| HSLPPLRPYPSP | 0.7553 ± 0.00076 |
| CEPSLPGRSRRA | 0.753 ± 0.056 |
| ALVTLRRVVDLV | 0.601 ± 0.08 |
| HVNGQWEANRRT | 0.697 ± 0.048 |
| IPLPPHLTPPST | 0.677 ± 0.086 |
| GFPGSYSKVLCL | 0.6619 ± 0.0032 |
| GRGRGEVMNGRG | 0.574 ± 0.0044 |
| PVLMTHPYFASS | 0.725 ± 0.0083 |
| PPGLPPGPARPP | 0.635 ± 0.036 |
| LPPPRSPPPLSA | 0.622 ± 0.057 |
| PFRSPSLPYFRL | 0.712 ± 0.018 |
| RTLPFPHAGLLF | 0.6816 ± 0.0061 |
| RVWQGRDGTVMK | 0.659 ± 0.019 |
| GVVRGEAGVIGR | 0.817 ± 0.087 |
| RYAGGHRIGFLI | 0.649 ± 0.025 |
| LPPAIPSTPPTP | 0.756 ± 0.0087 |
| PSLLPPRVCRPS | 0.68 ± 0.089 |
| VCFVGSCFKLVL | 0.6324 ± 0.0032 |
| PGRRATKVPSPR | 0.719 ± 0.027 |
| GTRAETQWSVGM | 0.682 ± 0.013 |

| Sequence | protein stability index |
| --- | --- |
| VVVLCLFFSFFL | 0.5872 ± 0.0011 |
| PVHFLPTPRAPL | 0.686 ± 0.039 |
| HVGEVESGGMGG | 0.707 ± 0.03 |
| IFLLLHSPSSAS | 0.697 ± 0.014 |
| CQYSRRRRQELH | 0.65 ± 0.075 |
| RRSPYLPRILTP | 0.661 ± 0.023 |
| YCGPSAGREGGG | 0.771 ± 0.081 |
| GGGVSSEWSGCR | 0.665 ± 0.0087 |
| PHAGPLHTPLRL | 0.699 ± 0.019 |
| GWGCCWSVAWTF | 0.614 ± 0.026 |
| HPTHTPPSTHRD | 0.7316 ± 0.0053 |
| APPPPPVHPSSP | 0.734 ± 0.011 |
| ASLIGHLKATSP | 0.672 ± 0.014 |
| PLFTPPPVLHHP | 0.752 ± 0.031 |
| WLFAFLCSCFCV | 0.71 ± 0.093 |
| MEGNQTSVRGRT | 0.677 ± 0.083 |
| GGWGPGALEVGT | 0.6578 ± 0.0018 |
| FFSISPLLPLPF | 0.714 ± 0.2 |
| PPPAPPGPRYRR | 0.696 ± 0.025 |
| WAPHLPQPSRCS | 0.743 ± 0.062 |
| LLHHSSVSFFSL | 0.71 ± 0.016 |
| PAPPTPPPPLYP | 0.715 ± 0.015 |
| SQWGRVTMNLCG | 0.706 ± 0.012 |
| RPTLPGGSPYYS | 0.75 ± 0.05 |
| LLLLNSFFISPP | 0.742 ± 0.027 |
| MVDGFLRFDTKM | 0.704 ± 0.13 |

| Sequence | protein stability index |
| --- | --- |
| AVGFVVHNSLKK | 0.739 ± 0.017 |
| LNCRCMLSRHCW | 0.666 ± 0.032 |
| LPSPHPPPPPLS | 0.673 ± 0.13 |
| LYVTYVPYTYAT | 0.665 ± 0.012 |
| QKKKKRKDKRTK | 0.7067 ± 0.0053 |
| QREYHENKIKYI | 0.563 ± 0.066 |
| GVEVAGCPGARG | 0.655 ± 0.042 |
| VYGIAPPTRCFS | 0.649 ± 0.024 |
| SVWGGVPLVRET | 0.6854 ± 0.0015 |
| PDHFPSPALPTH | 0.702 ± 0.0097 |
| PPLRPHHPLYHS | 0.687 ± 0.011 |
| PSSLATFLPWPI | 0.739 ± 0.039 |
| GLEPSGLSGGSW | 0.672 ± 0.041 |
| GHCVALGNRVLH | 0.665 ± 0.068 |
| CSGLFLAPSYTQ | 0.713 ± 0.0096 |
| TLSSGREVVGRW | 0.576 ± 0.012 |
| SPSGLPLHFSFL | 0.704 ± 0.012 |
| SWFVGFEGAVGG | 0.7563 ± 0.0046 |
| NKKKKHTQYKRK | 0.694 ± 0.0077 |
| LDKLLFIFNCGC | 0.66 ± 0.044 |
| REQKTKDKKKRQ | 0.703 ± 0.024 |
| CFYSFWQVTRFL | 0.477 ± 0.062 |
| AMGILSHLTACW | 0.659 ± 0.048 |
| VNRDYLGTNKSS | 0.604 ± 0.017 |
| KEKIGIQIKKKR | 0.675 ± 0.047 |
| HVVSSGFLVGLG | 0.671 ± 0.039 |

| Sequence | protein stability index |
| --- | --- |
| VVPSMFPGAEVL | 0.691 ± 0.026 |
| YRTSLSMANHLL | 0.611 ± 0.069 |
| RGARGIGVRLRV | 0.651 ± 0.026 |
| SPSLPPLPRSPR | 0.68 ± 0.053 |
| PLPPPLDLPPRS | 0.735 ± 0.12 |
| TGWASWVSVCLI | 0.5587 ± 0.00094 |
| PPLPLTSPPPSP | 0.631 ± 0.024 |
| LSCWLGCVALGW | 0.718 ± 0.13 |
| FVVGGGALGCYA | 0.661 ± 0.019 |
| SRVEVEVKIGFQ | 0.6331 ± 0.0061 |
| SVHTQLSPMDTT | 0.64 ± 0.018 |
| LFWFSRVVCMSF | 0.564 ± 0.048 |
| GGGSVGMWGWWV | 0.625 ± 0.075 |
| ELHPLPLPPPAV | 0.743 ± 0.013 |
| VAGQISGLIYFR | 0.699 ± 0.044 |
| FAFLPYKGISSS | 0.682 ± 0.05 |
| GREGQGRGGQQG | 0.629 ± 0.05 |
| RGRGRISGSWGT | 0.718 ± 0.013 |
| TCDGSCRRGDLR | 0.663 ± 0.066 |
| FYSRSVTLEVLH | 0.605 ± 0.023 |
| VSRQHLPAVLHL | 0.661 ± 0.024 |
| RFMAFGDKEILR | 0.662 ± 0.033 |
| PAPRLEPRSPNV | 0.676 ± 0.021 |
| CYTGMIRSTPLS | 0.702 ± 0.064 |
| HVTSTRGARRPS | 0.715 ± 0.019 |
| FPPRPPPSPSAH | 0.675 ± 0.027 |

| Sequence | protein stability index |
| --- | --- |
| GFVGVGEEEIFG | 0.7217 ± 0.006 |
| SPRFYSFRPSPP | 0.695 ± 0.019 |
| SHPPPTVPPAIP | 0.677 ± 0.013 |
| DGKAGRKGFWRK | 0.746 ± 0.023 |
| RKKREKREKETN | 0.598 ± 0.026 |
| PSASPPPPARQP | 0.672 ± 0.057 |
| PPPARPAPLSPP | 0.692 ± 0.08 |
| PLPLLPLPPLAP | 0.67 ± 0.098 |
| ARGDDGSTCSRG | 0.697 ± 0.059 |
| GGVSCYVHRRAR | 0.688 ± 0.06 |
| PVTTYPPQRHIA | 0.593 ± 0.03 |
| RAHLVSAPPQNF | 0.7074 ± 0.0033 |
| PPPPLLPPPSPL | 0.7 ± 0.032 |
| PPPPPPLSSPFP | 0.643 ± 0.032 |
| LLSPQPPSSPLP | 0.69 ± 0.015 |
| KTFGHQYVFIRK | 0.689 ± 0.013 |
| LQVTLALSAALP | 0.802 ± 0.079 |
| LLPLAPSPPPPH | 0.71 ± 0.042 |
| FFDSPHCRYACV | 0.744 ± 0.009 |
| PTLPSRYPPPMF | 0.751 ± 0.01 |
